Target: synaptobrevin2 (syb2) All ItoA (rat) (UniProt P63045)

mean open-state dwell time (<t (o-obs)>) of single fusion pores, ND5S(All ItoA) on t-SNARE BLM: 36 ms
Substance: synaptobrevin2 (syb2) All ItoA (from UniProt P63045 1-116) (natural protein)
